Changes are numbered by the printed parent chain. Names may count otherwise.
B1: I359F (protein)
chain: MQLRNPELHLGCALALRFLALVSWDIPGARALDNGLARTPTMGWLHWERFMCNLDCQEEPDSCISEKLFMEMAELMVSEGWKDAGYEYLCIDDCWMAPQRDSEGRLQADPQRFPHGIRQLANYVHSKGLKLGIYADVGNKTCAGFPGSFGYYDIDAQTFADWGVDLLKFDGCYCDSLENLADGYKHMSLALNRTGRSIVYSCEWPLYMWPFQKPNYTEIRQYCNHWRNFADIDDSWKSIKSILDWTSFNQERIVDVAGPGGWNDPDMLVIGNFGLSWNQQVTQMALWAIMAAPLFMSNDLRHISPQAKALLQDKDVIAINQDPLGKQGYQLRQGDNFEVWERPLSGLAWAVAMINRQEFGGPRSYTIAVASLGKGVACNPACFITQLLPVKRKLGFYEWTSRLRSHINPTGTVLLQLENTMQMSLKDLL
B2: I359S (protein)
chain: B1 chain with F359S
B3: P362S (protein)
chain: B1 chain with F359I, P362S
B4: R363L (protein)
chain: B1 chain with F359I, R363L
B5: P362H (protein)
chain: B1 chain with F359I, P362H
B6: P362A (protein)
chain: B1 chain with F359I, P362A
B7: I359L (protein)
chain: B1 chain with F359L
B8: Y365N (protein)
chain: B1 chain with F359I, Y365N
B9: P362R (protein)
chain: B1 chain with F359I, P362R
B10: T366I (protein)
chain: B1 chain with F359I, T366I
B11: Y365D (protein)
chain: B1 chain with F359I, Y365D
B12: S364C (protein)
chain: B1 chain with F359I, S364C
B13: S364P (protein)
chain: B1 chain with F359I, S364P
B14: I359N (protein)
chain: B1 chain with F359N
B15: Y365F (protein)
chain: B1 chain with F359I, Y365F
B16: R363G (protein)
chain: B1 chain with F359I, R363G
B17: R363S (protein)
chain: B1 chain with F359I, R363S
B18: T366N (protein)
chain: B1 chain with F359I, T366N
B19: I359V (protein)
chain: B1 chain with F359V
B20: Y365S (protein)
chain: B1 chain with F359I, Y365S
B21: T366P (protein)
chain: B1 chain with F359I, T366P

System: mutant form of α-Gal A expressed in HEK-293 cells
Experiment: HEK assay (GLP HEK / Migalastat Amenability Assay): α-Gal A activity in lysates of transiently transfected HEK-293 cells incubated with or without 10 μM migalastat
Assay type: cell-based, human
Conditions: for Absolute increase (% WT) / Relative increase: 10 μM migalastat versus baseline; for Baseline α-Gal A activity (% WT): absence of migalastat; for Baseline α-Gal A activity (% WT) / 10 μM migalastat α-Gal A activity (% WT): percentage of baseline wild-type α-Gal A activity; for Baseline α-Gal A activity (% WT) / Baseline α-Gal A activity / 10 μM migalastat α-Gal A activity / 10 μM migalastat α-Gal A activity (% WT): mean ± SEM; for Baseline α-Gal A activity / 10 μM migalastat α-Gal A activity: lysates of HEK-293 cells transiently transfected with the mutant form; for Baseline α-Gal A activity: incubated 5 days in absence of migalastat; for 10 μM migalastat α-Gal A activity: incubated 5 days with 10 μM migalastat; for 10 μM migalastat α-Gal A activity (% WT): with 10 μM migalastat, 5 days
Method in brief: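 Activity reported as 4-MU released (nmol/mg/hr), mean±SEM, from lysates of transiently transfected HEK-293 cells expressing mutant α-Gal A, cultured with or without 10 μM migalastat.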

| Molecule | Absolute increase (% WT) | Relative increase | Baseline α-Gal A activity (% WT) | Baseline α-Gal A activity [nmol/mg/h] | 10 μM migalastat α-Gal A activity [nmol/mg/h] | 10 μM migalastat α-Gal A activity (% WT) |
| --- | --- | --- | --- | --- | --- | --- |
| B1 | 14.1 | 2.1 | 13 ± 1 | 6138 ± 568 | 13144 ± 1091 | 27 ± 1.6 |
| B2 | 29.6 | 1.3 | 101.6 ± 6.3 | 37737 ± 2594 | 48055 ± 2727 | 131.2 ± 8.4 |
| B3 | 53.8 | 1.8 | 71.2 ± 7.7 | 25234 ± 2794 | 45209 ± 4138 | 125 ± 9 |
| B4 | 62.2 | 3.5 | 23.2 ± 1.9 | 8123 ± 869 | 27997 ± 2485 | 85.4 ± 9.5 |
| B5 | 33.4 | 3.9 | 11.2 ± 1 | 3713 ± 377 | 14620 ± 531 | 44.6 ± 1.9 |
| B6 | 40.1 | 1.4 | 100.8 ± 9.5 | 35322 ± 3087 | 49809 ± 2721 | 140.9 ± 8.5 |
| B7 | 25.6 | 1.7 | 39.1 ± 1.8 | 16254 ± 909 | 26791 ± 1713 | 64.7 ± 3.9 |
| B8 | 22.5 | 1.4 | 59.7 ± 1.7 | 19111 ± 869 | 26514 ± 1978 | 82.2 ± 4.5 |
| B9 | 23.9 | 1.8 | 25 ± 3.1 | 8745 ± 1176 | 15971 ± 1019 | 48.9 ± 4.1 |
| B10 | 20.0 | 1.3 | 57.8 ± 2.5 | 18539 ± 1165 | 24814 ± 1897 | 77.8 ± 5.3 |
| B11 | 19.7 | 1.6 | 31.3 ± 2.7 | 9119 ± 1027 | 14664 ± 1311 | 51 ± 3.5 |
| B12 | 40.0 | 1.3 | 127 ± 10.6 | 41263 ± 2389 | 53912 ± 3067 | 167 ± 14.8 |
| B13 | 63.1 | 1.4 | 143.2 ± 13.7 | 48193 ± 4573 | 66731 ± 4698 | 206.4 ± 20 |
| B14 | 12.5 | 1.6 | 20.8 ± 1.2 | 10862 ± 655 | 17332 ± 879 | 33.3 ± 1.8 |
| B15 | 21.1 | 1.3 | 67.7 ± 5.1 | 19631 ± 2010 | 25395 ± 2160 | 88.8 ± 5.3 |
| B16 | 72.6 | 2.7 | 41.8 ± 5.1 | 13990 ± 1613 | 37837 ± 2998 | 114.4 ± 10.7 |
| B17 | 86.6 | 2.7 | 50.1 ± 5.9 | 16400 ± 1695 | 44621 ± 3266 | 136.7 ± 12.4 |
| B18 | 20.4 | 1.3 | 78.1 ± 5.3 | 24650 ± 1756 | 30947 ± 1867 | 98.5 ± 5.4 |
| B19 | 31.6 | 1.6 | 51.5 ± 3.4 | 20990 ± 1174 | 34265 ± 1528 | 83.1 ± 3.3 |
| B20 | 18.4 | 1.4 | 49.4 ± 4.1 | 14346 ± 1563 | 19484 ± 1899 | 67.8 ± 4.9 |
| B21 | 13.4 | 1.3 | 46.2 ± 4 | 13407 ± 1462 | 16910 ± 1608 | 59.5 ± 5.1 |

From patent publication US11833164B2, “Methods of treating Fabry disease in patients having a mutation in the GLA gene” (Amicus Therapeutics, Inc., priority 2019, dated 2023)
